Results on 1 protein are retold here after PMC2527485 (Journal of molecular biology, 2008).

This series deals with the molecule itself. Description: SEC + crystal structure.

B1: E,Z-farnesyl diphosphate synthase (Rv1086) (enzyme)
chain: MEIIPPRLKEPLYRLYELRLRQGLAASKSDLPRHIAVLCDGNRRWARSAGYDDVSYGYRMGAAKIAEMLRWCHEAGIELATVYLLSTENLQRDPDELAALIEIITDVVEEICAPANHWSVRTVGDLGLIGEEPARRLRGAVESTPEVASFHVNVAVGYGGRREIVDAVRALLSKELANGATAEELVDAVTVEGISENLYTSGQPDPDLVIRTSGEQRLSGFLLWQSAYSEMWFTEAHWPAFRHVDFLRALRDYSARHRSYGR
B1: the “stoichiometry N” value came out at 2.
